Laboratory results: US12233135B2, “Therapeutic constructs for treating cancer” (PRECISION MOLECULAR INC., priority 2018, dated 2025)

Test system: B16F10-Red-FLuc mouse melanoma cells
Assay: Syngeneic model of experimental metastasis to the lung using B16F10-Red-FLuc cells
Type: in vivo
Conditions: Example 9
Experimental: B16F10-Red-FLuc mouse melanoma cells (Perkin Elmer, Waltham, MA, USA) were cultured in RPMI 1640 cell culture medium supplemented with 10% FBS, 1% GlutaMAX™, and 1% penicillin-streptomycin, and grown at 37° C. in a humidified cell culture incubator supplied with 5% CO2. The cells were harvested by trypsinization, washed twice in HBSS and counted (using trypan blue exclusion). The final cell density was adjusted with HBSS to 3.5×10e6 cells/mL. 100 μL of cell suspension, consisting of 3.5×10e5 cells, was discharged into the tail vein of mice at the start of the study (Day 0). Imaging was performed on study Day 5, when the presence of lung tumors was confirmed in sufficient animals to commence the study. Imaging was performed as described in Example 6.
9.5% Trehalose buffer and nanoparticles containing PEG-lucia, PEG-mIL12, PEG-TK-mIL12, PEG-mIL2-mIL12 and PEG-TK-mIL2-mIL12 (each 60 μg/vial) were reconstituted in 300 μL of nuclease-free water per vial on the day of dosing to give dosing solutions of 200 μg/mL. Formulated test articles were stored at 4° C. and used on day of reconstitution.
9.5% Trehalose buffer and nanoparticles containing PEG-lucia, PEG-mIL12, PEG-TK-mIL12, PEG-mIL2-mIL12 and PEG-TK-mIL2-mIL12 were administered via intravenous injection (i.v.) on Study Days 5, 8, 11, 14 and 17. Treatments were administered at a dose of 2 mg/kg in a dosing volume of 10 mL/kg on Study Days 5, 11, 14 and 17. Due to declining body weight in all groups apart from the vehicle control at Day 6, the dose was reduced to 1 mg/kg in 5 mL/kg for the dose administered on Study Day 8. Dosing then resumed at 2 mg/kg in 10 mL/kg on Study Day 11 as per protocol.
The anti-tumor effect of nanoparticles containing PEG-mIL12 and expressing mIL-12 was compared to recombinant mIL-12 protein administered subcutaneously. The experimental design was as Example 8 but nanoparticles were prepared at N/P=4 and N/P=6 ratios. Nanoparticles were dosed as before for N/P=6, however, for the N/P=4 formulation the dose was maintained at 2 mg/kg in 10 mL/kg at day 8. […]

B1: recombinant mIL-12: recombinant mIL-12 protein (PeproTech) administered subcutaneously (protein, UniProt P43431 23-215; P43432 23-335, looked up)
Interleukin-12 subunit alpha: RVIPVSGPARCLSQSRNLLKTTDDMVKTAREKLKHYSCTAEDIDHEDITRDQTSTLKTCLPLELHKNESCLATRETSSTTRGSCLPPQKTSLMMTLCLGSIYEDLKMYQTEFQAINAALQNHNHQQIILDKGMLVAIDELMQSLNHNGETLRQKPPVGEADPYRVKMKLCILLHAFSTRVVTINRVMGYLSSA
Interleukin-12 subunit beta: MWELEKDVYVVEVDWTPDAPGETVNLTCDTPEEDDITWTSDQRHGVIGSGKTLTITVKEFLDAGQYTCHKGGETLSHSHLLLHKKENGIWSTEILKNFKNKTFLKCEAPNYSGRFTCSWLVQRNMDLKFNIKSSSSSPDSRAVTCGMASLSAEKVTLDQRDYEKYSVSCQEDVTCPTAEETLPIELALEARQQNKYENYSTSFFIRDIIKPDPPKNLQMKPLKNSQVEVSWEYPDSWSTPHSYFSLKFFVRIQRKKEKMKETEEGCNQKGAFLVEKTSTEVQCKGGNVCVQAQDRYYNSSCSKWACVPCRVRS
In the case of B1, the “Median survival compared with Trehalose control” value (Log-rank test, p≤0.01 for PEG-mIL12 formulations, p≤0.05 for recombinant mIL-12) is reported as “significantly longer”, the “tumor growth by luminescence compared with 9.5% Trehalose control” value (Study Day 19) is reported as “significant (p≤0.05) inhibition of tumor growth” and the Median survival time (nanoparticles 2 mg/kg i.v., recombinant mIL-12 s.c. 4 μg/kg then 12 μg/kg, Trehalose control 22.0 days) is reported as 25.0 days.
